According to US11202837B2, “Biological materials and uses thereof” (Antikor Biopharma Limited, priority 2014, dated 2021):

Tests used:
HER2 = HER2 (Homo sapiens, UniProt P04626); test: Biacore SPR binding to immobilised HER2; conditions: immobilised HER2
Description: The binding affinity against immobilised HER2 target antigen was determined by Biacore SPR compared to the unmodified scFv on a Biacore T200. A standard amine-coupling method was used to prepare all Biacore surfaces (CM5 or CM3), as follows. Flow cells were activated individually by injecting a freshly mixed solution of 0.2M EDC in 0.05 M NHS at 30 μl/min. […] Excess NHS ester was deactivated using a 1 M ethanolamine solution. To measure the kinetics of the antibody and conjugate on the HER2 chip, a […] serial dilution (typically at 5, 2.5, 1.25, 0.6 μg/ml or lower for free antibody and 20, 10, 5, 2.5 μg/ml for the conjugates), was injected for 160 s at 30 μl/min, allowing a 900-s dissociation phase. The dissociation time was extended to 3600 s for the highest concentration. Surfaces were regenerated with 45 s injection of MgCl2 8M.
To evaluate binding ability, manual runs were performed at 30 μl/min with a 60 s injection of the desired compound followed by 60 s waiting time and a 45 s of regeneration at 10 μl/min using MgCl2 8M. All data was analysed using the software, BIAEvaluation.

[1] = Aggregation by HPLC size-exclusion chromatography; type: physicochemical; conditions: for aggregation by HPLC-SEC (in words): purified or analysed conjugate vs unconjugated antibody
Description: Aggregation can be tested by analytical size-exclusion HPLC measuring the percentage of high molecular weight material compared to the conjugate eluting at a retention time characteristic of a monomeric conjugate.
Typically, 20 μg of protein was injected for analytical runs and 300 μg for semi-preparative runs.

SKBr3 cells = test: Cell killing assay (MTS), SKBr3 cells; type: cell-based, human; conditions: SKBr3 Cells (HER2+++), 96 hours, Table 46
Description: (§1) SKBr3, human breast cancer cell line, high HER2 expression levels, up to 1,000,000 receptors per cell [Lazar G A, et al Proc Natl Acad Sci USA. […] When confluency was 70-80%, cells were washed with PBS (2×10 ml) and incubated with trypsin for 5-7 min. Complete media was added and the cells were resuspended by pipetting. The cells were recovered by centrifugation (2 min, 2000 rpm), the supernatant was discarded, and the cells were resuspended in complete DMEM (5 ml). The cells were then counted using a haemocytometer and diluted accordingly. They were plated at 4500 cells/well (200 μl) using attachment factor and incubated overnight at 37° C., 5% CO2 in a humidified atmosphere. U87 is a non-HER2 expressing glioblastoma cell line and was grown in a similar way, plated at 1000 cells/well.
(§2) […] Cell viability was measured using the Promega Aqueous Cell-titre-96™ aqueous one solution cell proliferation kit according to manufacturer's instructions. Briefly, the media was removed and 100 μl of complete phenol red free media, pre-combined with MTS reagent, was added to the cells (20 μl of reagent per 100 μl of media). The plates were read on an ELISA plate reader at 490 nm after a 2 hr incubation in the dark (5% CO2, 37° C.).
(§3) The data (absorption units) were converted to % cell survival by using the untreated controls as the 100% cell survival and the Triton X-100 controls as the 100% cell death. The average absorption value for the latter was subtracted from all the rest of the data in order to get a suitable baseline. The averages were converted to survival and standard error values were obtained for each n value (as a % cell survival). […] Experiments were repeated at least 3 times for each compound tested and a set or an average of the data was plotted and fitted to obtain a dose response curve.
(§4) The cells were recovered by centrifugation (2 min, 2000 rpm), the supernatant was discarded, and the cells were resuspended in complete McCoy's 5A (5 ml). The cells were then counted using a haemocytometer and diluted accordingly. They were plated at 5000 cells/well (200 μl) using attachment factor and incubated overnight at 37° C., 5% CO2 in a humidified atmosphere. U87 is a non-HER2 expressing glioblastoma cell line [Zitron I M et al (2013) BMC Cancer 13:83] and was grown in a similar way, plated at 1000 cells/well (using DMEM media). BT474 is a HER2 expressing breast cancer cell line [Brockhoff G et al (2007) Cell Prolif 40:488-507] and was grown in a similar way, plated at 7500 cells/well (using RPMI media). NCI-N87 is a HER2 expressing gastric cancer cell line [Yamashita-Kashima Y et al (2013) Oncol. Rep 30:1087-93] and was grown in a similar way, plated at 7500 cells/well (using RPMI media).
as §2, with “kit (MTS reagent)” for “kit”
(§5) The data (absorption units) were converted to % cell survival by using the untreated controls as the 100% cell survival and the Triton X-100 controls as the 100% cell death. The average absorption value for the latter was subtracted from all the rest of the data in order to get a suitable baseline. The averages were converted to survival and standard error values were obtained for each n value (as a % cell survival).

U87 cells = test: Cell killing assay (MTS), U87 cells; type: cell-based; conditions: U87 Cells (HER2−), 96 hours, Table 46
Description: as §1
(§6) The cells were exposed to the various ADCs diluted in complete media for 96 hours at 37° C., 5% CO2 in a humidified atmosphere. Cell viability was measured using the Promega Aqueous Cell-titre-96™ aqueous one solution cell proliferation kit according to manufacturer's instructions. Briefly, the media was removed and 100 μl of complete phenol red free media, pre-combined with MTS reagent, was added to the cells (20 μl of reagent per 100 μl of media). The plates were read on an ELISA plate reader at 490 nm after a 2 hr incubation in the dark (5% CO2, 37° C.).
as §3, §4
as §6, with “kit (MTS reagent)” for “kit”
as §5

BT474 cells = test: Cell killing assay (MTS), BT474 cells; type: cell-based, human; conditions: BT474 Cells (HER2++), 96 hours, Table 46
Description: as §4
as §6, with “kit (MTS reagent)” for “kit”
as §3, with “dose-response” for “dose response”

Molecule | association rate (HER2) [M⁻¹ s⁻¹] | dissociation rate (HER2) [s⁻¹] | aggregation by HPLC-SEC (in words) [1] | aggregation by HPLC-SEC [1] | IC50 μg/ml (SKBr3 cells) [µg/mL] | IC50 (SKBr3 cells; read-out: IC50) [nM] | IC50 μg/ml (U87 cells) [µg/mL] | IC50 μg/ml (BT474 cells) [µg/mL] | IC50 (BT474 cells; read-out: IC50) [nM]
scFv (TCT1067)-Acetate DAR 16 (conjugate) scFv: SGSGGSGQVQLVQSGAEVKKPGESLKISCKGSGYSFTSYWIAWVRQMPGKGLEYMGLIYPGDSDTKYSPSFQGQVTISVDKSVSTAYLQWSSLKPSDSAVYFCARHDVGYCTDRTCAAWPEWLGVWGQGTLVTVSSGGGGSGGGGSGGGGSQSVLTQPPSVSAAPGQKVTISCSGSSSNIGNNYVSWYQQLPGTAPKLLIYGHTNRPAGVPDRFSGSKSGTSASLAISGFRSEDEADYYCASWDYTLSGWVFGGGTKLTVLMASMTGGQQMG | 3.63e+06 | 7.64e-05 | no aggregation |  |  |  |  |  | 
scFv (TCT1067)-DM1-dPEG12 DAR 8 (conjugate) scFv: SGSGGSGQVQLVQSGAEVKKPGESLKISCKGSGYSFTSYWIAWVRQMPGKGLEYMGLIYPGDSDTKYSPSFQGQVTISVDKSVSTAYLQWSSLKPSDSAVYFCARHDVGYCTDRTCAAWPEWLGVWGQGTLVTVSSGGGGSGGGGSGGGGSQSVLTQPPSVSAAPGQKVTISCSGSSSNIGNNYVSWYQQLPGTAPKLLIYGHTNRPAGVPDRFSGSKSGTSASLAISGFRSEDEADYYCASWDYTLSGWVFGGGTKLTVLMASMTGGQQMG | 13200 | 3.28e-05 |  | 4% aggregates |  |  |  |  | 
scFv (TCT1067)-MMAF-C5, DAR 6.4 (conjugate) scFv: SGSGGSGQVQLVQSGAEVKKPGESLKISCKGSGYSFTSYWIAWVRQMPGKGLEYMGLIYPGDSDTKYSPSFQGQVTISVDKSVSTAYLQWSSLKPSDSAVYFCARHDVGYCTDRTCAAWPEWLGVWGQGTLVTVSSGGGGSGGGGSGGGGSQSVLTQPPSVSAAPGQKVTISCSGSSSNIGNNYVSWYQQLPGTAPKLLIYGHTNRPAGVPDRFSGSKSGTSASLAISGFRSEDEADYYCASWDYTLSGWVFGGGTKLTVLMASMTGGQQMG |  |  |  |  | 0.007 | 0.25 | >5 | 0.008 | 0.286
scFv (TCT1067)-P5-C5 DAR 10.9 (conjugate) scFv: SGSGGSGQVQLVQSGAEVKKPGESLKISCKGSGYSFTSYWIAWVRQMPGKGLEYMGLIYPGDSDTKYSPSFQGQVTISVDKSVSTAYLQWSSLKPSDSAVYFCARHDVGYCTDRTCAAWPEWLGVWGQGTLVTVSSGGGGSGGGGSGGGGSQSVLTQPPSVSAAPGQKVTISCSGSSSNIGNNYVSWYQQLPGTAPKLLIYGHTNRPAGVPDRFSGSKSGTSASLAISGFRSEDEADYYCASWDYTLSGWVFGGGTKLTVLMASMTGGQQMG |  | 7.13e-05 | no aggregation |  |  |  |  |  | 
scFv (TCT)-Acetate DAR 15 (conjugate) scFv: SGSGGSGQVQLVQSGAEVKKPGESLKISCKGSGYSFTSYWIAWVRQMPGKGLEYMGLIYPGDSDTKYSPSFQGQVTISVDKSVSTAYLQWSSLKPSDSAVYFCARHDVGYCSSSNCAAWPEYFQHWGQGTLVTVSSGGGGSGGGGSGGGGSQSVLTQPPSVSAAPGQKVTISCSGSSSNIGNNYVSWYQQLPGTAPKLLIYGHTNRPAGVPDRFSGSKSGTSASLAISGFRSEDEADYYCAAWDDSLSGWVFGGGTKLTVLMASMTGGQQMG | 5.93e+06 | 0.0171 | no aggregation |  |  |  |  |  | 
scFv (TCT)-MMAF-C5 1 DAR 5.6 (conjugate) scFv: SGSGGSGQVQLVQSGAEVKKPGESLKISCKGSGYSFTSYWIAWVRQMPGKGLEYMGLIYPGDSDTKYSPSFQGQVTISVDKSVSTAYLQWSSLKPSDSAVYFCARHDVGYCSSSNCAAWPEYFQHWGQGTLVTVSSGGGGSGGGGSGGGGSQSVLTQPPSVSAAPGQKVTISCSGSSSNIGNNYVSWYQQLPGTAPKLLIYGHTNRPAGVPDRFSGSKSGTSASLAISGFRSEDEADYYCAAWDDSLSGWVFGGGTKLTVLMASMTGGQQMG | 770000 | 0.0042 | no aggregation |  |  |  |  |  | 
scFv (TCT)-MMAF-C5 DAR 6.8 (conjugate) scFv: SGSGGSGQVQLVQSGAEVKKPGESLKISCKGSGYSFTSYWIAWVRQMPGKGLEYMGLIYPGDSDTKYSPSFQGQVTISVDKSVSTAYLQWSSLKPSDSAVYFCARHDVGYCSSSNCAAWPEYFQHWGQGTLVTVSSGGGGSGGGGSGGGGSQSVLTQPPSVSAAPGQKVTISCSGSSSNIGNNYVSWYQQLPGTAPKLLIYGHTNRPAGVPDRFSGSKSGTSASLAISGFRSEDEADYYCAAWDDSLSGWVFGGGTKLTVLMASMTGGQQMG | 1.2e+06 | 0.0042 | no aggregation | 17% |  |  |  |  | 
